# From patent US20130145485
# Tests used:
# Test in all cases: cell_activity
# [1] = tested on: ZFN 32398 (synthetic construct); details: pair 32401/32398, DLSSA reporter in Neuro2A; pVAX control 0.16
# [2] = tested on: ZFN 9940 (synthetic construct); details: pair 12897/9940 with donor, CF iPS cells; 21 of 64 clones; scale: % puroR clones with targeted insertion
# [3] = tested on: ZFN 32366 (synthetic construct); details: pair 32365/32366, K562 cells
# [4] = tested on: ZFN 12897 (synthetic construct); details: pair 12897/9940 with donor, CF iPS cells; 21 of 64 clones; scale: % puroR clones with targeted insertion
# [5] = tested on: ZFN 32365 (synthetic construct); details: pair 32365/32366, K562 cells
# [6] = tested on: ZFN 32376 (synthetic construct); details: pair 32375/32376, K562 cells
# [7] = tested on: ZFN 32401 (synthetic construct); details: pair 32401/32398, DLSSA reporter in Neuro2A; pVAX control 0.16
# [8] = tested on: ZFN 32375 (synthetic construct); details: pair 32375/32376, K562 cells
sequence,measurement,setting,value
ACACCAATGATATTTTCTTTAATGGTGC (double strand) [32398 target site],activity (firefly/renilla ratio),[1],1.45
AGTGATTATGGGAGAACTGGATGTTCACAGTCAGTCCACACGTC (double strand) [9940 target site],activity,[2],33
ATATAGATACAGAAGCGTCATCAAAGCA (double strand) [32366 target site],activity,[3],9 % indels
ATTAGAAGTGAAGTCTGGAAATAAAACC (double strand) [12897 target site],activity,[4],33
CATCATAGGAAACACCAAAGATGATATT (double strand) [32365 target site],activity,[5],9 % indels
CCAACTAGAAGAGGTAAGAAACTATGTG (double strand) [32376 target site],activity,[6],12 % indels
CCTATGATGAATATAGATACAGAAGCGT (double strand) [32401 target site],activity (firefly/renilla ratio),[7],1.45
GCTTTGATGACGCTTCTGTATCTATATT (double strand) [32375 target site],activity,[8],12 % indels
